Reference: IntAct's records for PubMed 31631010

B1: Palmitoyltransferase ZDHHC5 (Mus musculus), Q8VDZ4 (parent)
chain: MPAESGKRFKPSKYVPVSAAAIFLVGATTLFFAFTCPGLSLNVSPAVPIYNAIMFLFVLANFSMATFMDPGIFPRAEEDEDKEDDFRAPLYKTVEIKGIQVRMKWCATCRFYRPPRCSHCSVCDNCVEEFDHHCPWVNNCIGRRNYRYFFLFLLSLTAHIMGVFGFGLLYVLYHIEELSGVRTAVTMAVMCVAGLFFIPVAGLTGFHVVLVARGRTTNEQVTGKFRGGVNPFTNGCCNNVSRVLCSSPAPRYLGRPKKEKTIVIRPPFLRPEVSDGQITVKIMDNGIQGELRRTKSKGSLEITESQSADAEPPPPPKPDLSRYTGLRTHLSLATNEDSSLLGKDSPPTPTMYKYRPGYSSSSTSAAMPHSSSAKLSRGDSLKEPTSIADSSRHPSYRSEPSLEPESFRSPTFGKSFHFDPLSSGSRSSSLKSAQGTGFELGQLQSIRSEGTTSTSYKSLANQTRNGSLSYDSLLTPSDSPDFESVQAGPEPDPPLGYTSPFLSARLAQQREAERHPRLLPTGPPHREPSPVRYDNLSRHIVASLQEREKLLRQSPPLAGREEEPGLGDSGIQSTPGSGHAPRTSSSSDDSKRSPLSKTPLGRPAVPRFGKPDGLRSRGLGSPEPGTTAPYLGRSISYSSQKAPSGVSETEEVALQPLLTPKDEVQLKTTYSKSNGQPKSIGSASPGPGQPPLSSPTRGGVKKVSGVGGTTYEISV

Variants of: B1
Conditions: with goga7_human GOLGA7, Q7Z5G4

effect of a mutation on the interaction	Variant
with no effect	C134S
disrupting interaction strength	C236S;C237S;C245S
